Data set [1] relates to HeLa Kyoto. Briefly: melting temperature (median over replicates), in situ; higher = more thermally stable.
The test system of data set [2] is HeLa Kyoto. The data set can be described thus: solubility change mitosis vs G1/S (difference of NP-40 vs SDS log2 ratios) (log2 ratio difference); higher = more soluble in mitosis.
For data set [3], the system named is HeLa Kyoto. Briefly: thermal stability score vs G1/S (z-score of summed log2 fold changes over temperatures); higher = more thermally stable than in G1/S.
Data set [4] has as its system HeLa Kyoto. The data set can be described thus: solubility in G1/S (NP-40 vs SDS abundance) (log2 ratio); higher = more soluble. The following applies: cell cycle stage: G1/S.
[5] abbreviates: cell cycle stage: early G1 (4.5 h after nocodazole release).
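For melting temperature (median over replicates), in situ in this document: HeLa Kyoto cells synchronized by double thymidine or nocodazole block, proteins quantified by TMT10plex mass spectrometry, three independent biological replicates.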
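For solubility change mitosis vs G1/S (difference of NP-40 vs SDS log2 ratios) in this document: synchronized HeLa Kyoto cells (double thymidine block for G1/S, nocodazole release for mitosis), protein amounts in NP-40 versus SDS lysates quantified by mass spectrometry, three biological replicates.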
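For solubility in G1/S (NP-40 vs SDS abundance) in this document: HeLa Kyoto cells arrested at G1/S by double thymidine block, proteins quantified by TMT10plex mass spectrometry in mild NP-40 versus SDS extracts, three biological replicates.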
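For thermal stability score vs G1/S (z-score of summed log2 fold changes over temperatures) in this document: synchronized HeLa Kyoto cells, proteins quantified by TMT10plex mass spectrometry, three biological replicates, mitosis taken 0.5 h after nocodazole release, G1/S directly after double thymidine block.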

On to “MEPAPARSPRPQQDPARPQEPTMPPPETPSEGRQPSPSPSPTERAPASEEEFQFLRCQQCQAEAKCPKLLPCLHTLCSGCLEASGMQCPICQAPWPLGADTPALDNVFFESLQRRLSVYRQIVDAQAVCTRCKESADFWCFECEQLLCAKCFEAHQWFLKHEARPLAELRNQSVREFLDGTRKTNNIFCSNPNHRTPTLTSIYCRGCSKPLCCSCALLDSSHSELKCDISAEIQQRQEELDAMTQALQEQDSAFGAVHAQMHAAVGQLGRARAETEELIRERVRQVVAHVRAQERELLEAVDARYQRDYEEMASRLGRLDAVLQRIRTGSALVQRMKCYASDQEVLDMHGFLRQALCRLRQEEPQSLQAAVRTDGFDEFKVRLQDLSSCITQGKDAAVSKKASPEAASTPRDPIDVDLPEEAERVKAQVQALGLAEAQPMAVVQSVPGAHPVPVYAFSIKGPSYGEDVSNTTTAQKRKCSQTQCPRKVIKMESEEGKEARLARSSPEQPRPSTSKAVSPPHLDGPPSPRSPVIGSEVFLPNSNHVASGAGEAEERVVVISSSEDSDAENSSSRELDDSSSESSDLQLEGPSTLRVLDENLADPQAEDRPLVFFDLKIDNETQKISQLAAVNRESKFRVVIQPEAFFSIYSKAVSLEVGLQHFLSFLSSMRRPILACYKLWGPGLPNFFRALEDINRLWEFQEAISGFLAALPLIRERVPGASSFKLKNLAQTYLARNMSERSAMAAVLAMRDLCRLLEVSPGPQLAQHVYPFSSLQCFASLQPLVQAAVLPRAEARLLALHNVSFMELLSAHRRDRQGGLKKYSRYLSLQTTTLPPAQPAFNLQALGTYFEGLLEGPALARAEGVSTPLAGRGLAERASQQS [PML]”, for which the melting temperature turned out to be 50.3 °C in the data set with HeLa Kyoto [1] (cell cycle stage: G1/S) and 50.5 °C in the data set with HeLa Kyoto [1] (cell cycle stage: mitosis). Besides, the “solubility change mitosis (log2)” value with HeLa Kyoto [2] was 0.33. Also, the thermal stability score in the data set on HeLa Kyoto [3] (setting [5]) is -0.223; in the data set on HeLa Kyoto [3] (cell cycle stage: mitosis), 2.23. Moreover, the “solubility in G1/S (log2)” value in the data set with HeLa Kyoto [4] is -0.134.

With “MEPEAPRRRHTHQRGYLLTRNPHLNKDLAFTLEERQQLNIHGLLPPSFNSQEIQVLRVVKNFEHLNSDFDRYLLLMDLQDRNEKLFYRVLTSDIEKFMPIVYTPTVGLACQQYSLVFRKPRGLFITIHDRGHIASVLNAWPEDVIKAIVVTDGERILGLGDLGCNGMGIPVGKLALYTACGGMNPQECLPVILDVGTENEELLKDPLYIGLRQRRVRGSEYDDFLDEFMEAVSSKYGMNCLIQFEDFANVNAFRLLNKYRNQYCTFNDDIQGTASVAVAGLLAALRITKNKLSDQTILFQGAGEAALGIAHLIVMALEKEGLPKEKAIKKIWLVDSKGLIVKGRASLTQEKEKFAHEHEEMKNLEAIVQEIKPTALIGVAAIGGAFSEQILKDMAAFNERPIIFALSNPTSKAECSAEQCYKITKGRAIFASGSPFDPVTLPNGQTLYPGQGNNSYVFPGVALGVVACGLRQITDNIFLTTAEVIAQQVSDKHLEEGRLYPPLNTIRDVSLKIAEKIVKDAYQEKTATVYPEPQNKEAFVRSQMYSTDYDQILPDCYSWPEEVQKIQTKVDQ [ME1]”, the melting temperature in the data set with HeLa Kyoto [1] (cell cycle stage: G1/S) turned out to be 56.5 °C; in the data set on HeLa Kyoto [1] (cell cycle stage: mitosis) it was 56.7 °C. In addition, the “solubility change mitosis (log2)” value in the data set with HeLa Kyoto [2] was -0.171. The values for the thermal stability score in the data set with HeLa Kyoto [3] (setting [5]) and in the data set with HeLa Kyoto [3] (cell cycle stage: mitosis) were -1.35 and -1.4, respectively. Besides, the “solubility in G1/S (log2)” value in the data set on HeLa Kyoto [4] came out at 0.144.

For the sequence “MEPEPEPAAVEVPAGRVLSARELFAARSRSQKLPQRSHGPKDFLPDGSAAQAERLRRCREELWQLLAEQRVERLGSLVAAEWRPEEGFVELKSPAGKFWQTMGFSEQGRQRLHPEEALYLLECGSIHLFHQDLPLSIQEAYQLLLTDHTVTFLQYQVFSHLKRLGYVVRRFQPSSVLSPYERQLNLDASVQHLEDGDGKRKRSSSSPRSINKKAKALDNSLQPKSLAASSPPPCSQPSQCPEEKPQESSPMKGPGGPFQLLGSLGPSPGPAREGVGCSWESGRAENGVTGAGKRRWNFEQISFPNMASDSRHTLLRAPAPELLPANVAGRETDAESWCQKLNQRKEKLSRREREHHAEAAQFQEDVNADPEVQRCSSWREYKELLQRRQVQRSQRRAPHLWGQPVTPLLSPGQASSPAVVLQHISVLQTTHLPDGGARLLEKSGGLEIIFDVYQADAVATFRKNNPGKPYARMCISGFDEPVPDLCSLKRLSYQSGDVPLIFALVDHGDISFYSFRDFTLPQDVGH [TSEN54]”, the melting temperature was determined as 48.8 °C in the data set on HeLa Kyoto [1] (cell cycle stage: G1/S) and 50 °C with HeLa Kyoto [1] (cell cycle stage: mitosis). In addition, the “solubility change mitosis (log2)” value in the data set on HeLa Kyoto [2] was -0.153. For the same sequence, the thermal stability score with HeLa Kyoto [3] (setting [5]) is 0.317; in the data set with HeLa Kyoto [3] (cell cycle stage: mitosis) it was 0.466. Further, in the data set with HeLa Kyoto [4], the “solubility in G1/S (log2)” value stood at 0.322.

As for “MEPLSHRGLPRLSWIDTLYSNFSYGTDEYDGEGNEEQKGPPEGSETMPYIDESPTMSPQLSARSQGGGDGVSPTPPEGLAPGVEAGKGLEMRKLVLSGFLASEEIYINQLEALLLPMKPLKATATTSQPVLTIQQIETIFYKIQDIYEIHKEFYDNLCPKVQQWDSQVTMGHLFQKLASQLGVYKAFVDNYKVALETAEKCSQSNNQFQKISEELKVKGPKDSKDSHTSVTMEALLYKPIDRVTRSTLVLHDLLKHTPVDHPDYPLLQDALRISQNFLSSINEDIDPRRTAVTTPKGETRQLVKDGFLVEVSESSRKLRHVFLFTDVLLCAKLKKTSAGKHQQYDCKWYIPLADLVFPSPEESEASPQVHPFPDHELEDMKMKISALKSEIQKEKANKGQSRAIERLKKKMFENEFLLLLNSPTIPFRIHNRNGKSYLFLLSSDYERSEWREAIQKLQKKDLQAFVLSSVELQVLTGSCFKLRTVHNIPVTSNKDDDESPGLYGFLHVIVHSAKGFKQSANLYCTLEVDSFGYFVSKAKTRVFRDTAEPKWDEEFEIELEGSQSLRILCYEKCYDKTKVNKDNNEIVDKIMGKGQIQLDPQTVETKNWHTDVIEMNGIKVEFSMKFTSRDMSLKRTPSKKQTGVFGVKISVVTKRERSKVPYIVRQCVEEVEKRGIEEVGIYRISGVATDIQALKAVFDANNKDILLMLSDMDINAIAGTLKLYFRELPEPLLTDRLYPAFMEGIALSDPAAKENCMMHLLRSLPDPNLITFLFLLEHLKRVAEKEPINKMSLHNLATVFGPTLLRPSEVESKAHLTSAADIWSHDVMAQVQVLLYYLQHPPISFAELKRNTLYFSTDV [ABR]”, the melting temperature in the data set on HeLa Kyoto [1] (cell cycle stage: G1/S) came to 48.8 °C; in the data set on HeLa Kyoto [1] (cell cycle stage: mitosis), 49.1 °C. The “solubility change mitosis (log2)” value in the data set with HeLa Kyoto [2] was -0.111. Also, the values for the thermal stability score in the data set with HeLa Kyoto [3] (setting [5]) and in the data set on HeLa Kyoto [3] (cell cycle stage: mitosis) were 0.864 and 1.73, respectively. In addition, the “solubility in G1/S (log2)” value in the data set on HeLa Kyoto [4] is -0.0712.

(Values after the supplement of paper PMC5998384.)
